Data published in US11891634B2, “PDE5A destabilizing domains” (The Board of Trustees of the Leland Stanford Junior …, priority 2017, dated 2024).

Assays:
[1] = tested on: HCT 116 cells transduced with the PDE5A DD derived GFP constructs; assay: Response to Vardenafil, GFP expression by FACS in HCT116; assay type: cell-based, human; settings: for MFI / Stabilization ratio with Vardenafil: 48 hours, HCT116
Protocol: Mutations were created in PDE5A (535-860) catalytic domain using site directed mutagenesis and the mutants were cloned as AcGFP fusion into pELNS vector carrying mCherry marker and packaged in lentiviral vectors. HCT116 cells were transduced with the constructs and stable integrants were selected by cell sorting using mCherry marker. Cells were treated with vehicle (dimethyl sulfoxide, DMSO) or 10 μM Vardenafil (VDF) for 48 hours. Following the treatment, cells were analyzed for GFP expression using FACS. Basal expression was calculated as the ratio of GFP signal in the absence of ligand for a given cell line to auto fluorescence of parental HCT-116 cells. Stabilization ratio was calculated as the ratio of the GFP signal observed in the presence of stabilizing ligand to the signal from the same cell line in the absence of ligand.
HCT 116 cells transduced with the PDE5A DD derived GFP constructs were also tested with increasing doses of Vardenafil. The HCT116 cells were incubated for 48 hours with Vardenafil starting at a dose of 0.002 μM to 30 μM. The GFP intensity of the Vardenafil treated samples was compared to the parental untransduced HCT116 and DMSO treated cells for each construct. The mean fluorescence intensity was calculated for each sample and used to calculate the stabilization ratios as well as the basal expression for each construct. The GFP expression was measured using flow cytometry and the mean fluorescence intensity (MFI) was calculated for each sample. The stabilization ratios are shown in Table 13 and Table 14 and the basal expression is show in Table 15.

[2] = tested on: HCT116 cells transduced with the constructs; assay: Response to Sildenafil, GFP expression by flow cytometry in HCT116; assay type: cell-based, human; settings: for MFI / Stabilization ratio with Sildenafil: 48 hours, HCT116
Protocol: Similar experiments were performed in HCT116 cells using sildenafil. The above-mentioned DDs were cloned as AcGFP fusion into pELNS vector carrying mCherry marker and packaged in lentiviral vectors. HCT116 cells were transduced with the constructs and stable integrants were selected by cell sorting using mCherry marker. Cells were treated with sildenafil at the following μM concentrations: 0.01, 0.02, 0.05, 0.14, 0.41, 1.23, 3.7, 11.11, 33.33, and 100 for a duration of 48 hours. The fluorescence was analyzed by flow cytometry and the mean fluorescence intensity was calculated for all samples. […] The stabilization ratios are shown in Table 24 and Table 25 and the basal expression is show in Table 26.

B1: PDE5AC (#42): AcGFP fused to C-terminal DD 535-860 of PDE5A (E535D, K555R, F564S, Q589R, K630R, C677R, N742S, I799T, M816A), SEQ ID NO. 28 (protein)
chain: DETRELQSLAAAVVPSAQTLRITDFSFSDSELSDLETALCTIRMFTDLNLVQNFRMKHEVLCRWILSVKKNYRKNVAYHNWRHAFNTAQCMFAALRAGKIQNKLTDLEILALLIAALSHDLDHRGVNNSYIQRSEHPLAQLYRHSIMEHHHFDQCLMILNSPGNQILSGLSIEEYKTTLKIIKQAILATDLALYIKRRGEFFELIRKSQFNLEDPHQKELFLAMLMTACDLSAITKPWPIQQRIAELVATEFFDQGDRERKELNTEPTDLMNREKKNKIPSAQVGFIDAICLQLYEALTHVSEDCFPLLDGCRKNRQKWQALAEQQ
modifications: /note=“Description of Artificial Sequence Synthetic Destabilizing Domain (DD)”
MFI ([1]; DMSO (no Vardenafil)): 25111
Basal (DMSO/Parental) ([1]; Table 10, GFP signal without ligand / auto fluorescence of parental HCT-116): 20.0
Basal ([1]; Table 15, MFI with DMSO / parental HCT116, Vardenafil experiment): 12.85
Stabilization ratio with Vardenafil ([1]; Vardenafil 0.002 μM vs DMSO): 1.0
MFI ([1]; Vardenafil 0.002 μM): 25236
MFI ([1]; Vardenafil 0.005 μM): 28309
Stabilization ratio with Vardenafil ([1]; Vardenafil 0.014 μM vs DMSO): 1.4
MFI ([1]; Vardenafil 0.014 μM): 33958
Stabilization ratio with Vardenafil ([1]; Vardenafil 0.041 μM vs DMSO): 1.9
MFI ([1]; Vardenafil 0.041 μM): 46882
Stabilization ratio with Vardenafil ([1]; Vardenafil 0.123 μM vs DMSO): 3.2
MFI ([1]; Vardenafil 0.123 μM): 81233
Stabilization ratio with Vardenafil ([1]; Vardenafil 0.370 μM vs DMSO): 4.6
MFI ([1]; Vardenafil 0.370 μM): 114847
Stabilization ratio with Vardenafil ([1]; Vardenafil 1.111 μM vs DMSO): 5.4
MFI ([1]; Vardenafil 1.111 μM): 136303
Stabilization ratio with Vardenafil ([1]; Vardenafil 3.333 μM vs DMSO): 5.9
MFI ([1]; Vardenafil 3.333 μM): 147512
Stabilization ratio with Vardenafil ([1]; Vardenafil 10 μM vs DMSO): 6.4
MFI ([1]; Vardenafil 10 μM): 161587
Stabilization ratio with Vardenafil ([1]; Vardenafil 30 μM vs DMSO): 8.0
MFI ([1]; Vardenafil 30 μM): 199877
MFI ([2]; DMSO (no Sildenafil)): 23943
Stabilization ratio with Sildenafil ([2]; Sildenafil 0.01 μM vs DMSO): 1.0
MFI ([2]; Sildenafil 0.01 μM): 23295
Stabilization ratio with Sildenafil ([2]; Sildenafil 0.02 μM vs DMSO): 1.0
MFI ([2]; Sildenafil 0.02 μM): 23606
Stabilization ratio with Sildenafil ([2]; Sildenafil 0.05 μM vs DMSO): 1.0
MFI ([2]; Sildenafil 0.05 μM): 24817
Stabilization ratio with Sildenafil ([2]; Sildenafil 0.14 μM vs DMSO): 1.2
MFI ([2]; Sildenafil 0.14 μM): 29495
Stabilization ratio with Sildenafil ([2]; Sildenafil 0.41 μM vs DMSO): 1.7
MFI ([2]; Sildenafil 0.41 μM): 40817
Stabilization ratio with Sildenafil ([2]; Sildenafil 1.23 μM vs DMSO): 2.6
MFI ([2]; Sildenafil 1.23 μM): 63410
Stabilization ratio with Sildenafil ([2]; Sildenafil 3.70 μM vs DMSO): 3.8
MFI ([2]; Sildenafil 3.70 μM): 91798
Stabilization ratio with Sildenafil ([2]; Sildenafil 11.11 μM vs DMSO): 5.3
MFI ([2]; Sildenafil 11.11 μM): 127187
Stabilization ratio with Sildenafil ([2]; Sildenafil 33.33 μM vs DMSO): 6.3
MFI ([2]; Sildenafil 33.33 μM): 149906
Stabilization ratio with Sildenafil ([2]; Sildenafil 100.00 μM vs DMSO): 6.9
MFI ([2]; Sildenafil 100.00 μM): 164269
Basal expression ([2]; Table 26, MFI with DMSO / parental HCT116, Sildenafil experiment): 18.6
